The results in this text go back to patent JP2005325133A (dated 2005).

Test [1] deals with T1, HLA-DR DRB1*15011/DRA*0101 forcibly expressed on L cells (ATCC CCL-1) (human, UniProt P01903 26-254; P01911 30-266).
T1 construct: whole, on cells
Description: flow cytometry on transfected L cells. In general terms: In flow cytometry, cells or beads pass a laser one at a time.

Another test concerns the target T2, SEQ ID NO 48 (human).
T2 construct: also called 配列番号48
T2 peptide: WNSQADLLEQRRA
In words: peptide spot blot, chemiluminescence (LAS2000).

The target in the next test is T3, SEQ ID NO 49 (human).
T3 construct: also called 配列番号49
T3 peptide: WNSQKALLEQRRA
Description: peptide spot blot, chemiluminescence (LAS2000).

Another test addresses T4, SEQ ID NO 50 (human).
T4 construct: also called 配列番号50
T4 peptide: WNSQKDLLAQRRA
In words: peptide spot blot, chemiluminescence (LAS2000).

In the next test the target is T5, SEQ ID NO 51 (human).
T5 construct: also called 配列番号51
T5 peptide: WNSQKDLLEQRAA
In words: peptide spot blot, chemiluminescence (LAS2000).

Test [2] has as its target T6, 13-mer peptide, amino acids 61-73 of HLA-DR β chain (DRB1*15011), SEQ ID NO 82 (human, reading uncertain).
T6 construct: SPOT peptide on cellulose membrane (JERINI); also called 配列番号82; 61番目〜73番目
T6 peptide: Ac-WNSQKDILEQARA-{cellulose membrane}
In words: SPOT peptide membrane, chemiluminescence (LumiImager).

Test [3] concerns the target T7, 13-mer peptide, amino acids 63-75 of HLA-DR β chain (DRB1*15011), SEQ ID NO 83 (human, reading uncertain).
T7 construct: SPOT peptide; also called 配列番号83; 63番目〜75番目
T7 peptide: Ac-SQKDILEQARAAV-{cellulose membrane}
Described as above.

Test [4] addresses T8, 13-mer peptide, amino acids 65-77 of HLA-DR β chain (DRB1*15011), SEQ ID NO 84 (human, reading uncertain).
T8 construct: SPOT peptide; also called 配列番号84; 65番目〜77番目
T8 peptide: Ac-KDILEQARAAVDT-{cellulose membrane}
The description is as above.

The target of the next test is T9, SEQ ID NO 24 (human).
T9 construct: One of 16 peptides covering the polymorphic variants of HLA-DR β chain 61-73; also called 配列番号24
T9 peptide: WNSQKDFLEDRRA
Description: peptide spot blot, antibody 1 μg/mL, chemiluminescence (LAS2000).

Another test deals with T10, SEQ ID NO 25 (human).
T10 construct: One of 16 peptides covering the polymorphic variants of HLA-DR β chain 61-73; also called 配列番号25
T10 peptide: WNSQKDFLERRRA
The description is as above.

Another test concerns the target T11, SEQ ID NO 26 (human).
T11 construct: One of 16 peptides covering the polymorphic variants of HLA-DR β chain 61-73; also called 配列番号26
T11 peptide: WNSQKDFLEDERA
The test is described as above.

The next test addresses T12, SEQ ID NO 27 (human).
T12 construct: One of 16 peptides covering the polymorphic variants of HLA-DR β chain 61-73; also called 配列番号27
T12 peptide: WNSQKDFLEQARA
Described as above.

The target in another test is T13, SEQ ID NO 28 (human).
T13 construct: One of 16 peptides covering the polymorphic variants of HLA-DR β chain 61-73; also called 配列番号28
T13 peptide: WNSQKDILEDERA
The test is described as above.

For a further test, the target named is T14, SEQ ID NO 29 (human).
T14 construct: One of 16 peptides covering the polymorphic variants of HLA-DR β chain 61-73; also called 配列番号29
T14 peptide: WNSQKDILEQKRG
Described as above.

A further test addresses T15, SEQ ID NO 30 (human).
T15 construct: One of 16 peptides covering the polymorphic variants of HLA-DR β chain 61-73; also called 配列番号30
T15 peptide: WNSQKDILEDRRA
The description is as above.

A further test concerns the target T16, SEQ ID NO 31 (human).
T16 construct: One of 16 peptides covering the polymorphic variants of HLA-DR β chain 61-73; also called 配列番号31
T16 peptide: WNSQKDILEDRRG
The description is as above.

The target in another test is T17, SEQ ID NO 32 (human).
T17 construct: One of 16 peptides covering the polymorphic variants of HLA-DR β chain 61-73; also called 配列番号32
T17 peptide: WNSQKDILEDKRA
The description is as above.

The target of the next test is T18, SEQ ID NO 33 (human).
T18 construct: One of 16 peptides covering the polymorphic variants of HLA-DR β chain 61-73; also called 配列番号33
T18 peptide: WNSQKDILEQARA
The description is as above.

Another test has as its target T19, SEQ ID NO 34 (human).
T19 construct: One of 16 peptides covering the polymorphic variants of HLA-DR β chain 61-73; also called 配列番号34
T19 peptide: WNSQKDLLEQRRA
The description is as above.

For the next test, the target named is T20, SEQ ID NO 35 (human).
T20 construct: One of 16 peptides covering the polymorphic variants of HLA-DR β chain 61-73; also called 配列番号35
T20 peptide: WNSQKDLLEQARA
The test is described as above.

The target in the next test is T21, SEQ ID NO 36 (human).
T21 construct: One of 16 peptides covering the polymorphic variants of HLA-DR β chain 61-73; also called 配列番号36
T21 peptide: WNSQKDLLEQKRG
Described as above.

A further test concerns the target T22, SEQ ID NO 37 (human).
T22 construct: One of 16 peptides covering the polymorphic variants of HLA-DR β chain 61-73; also called 配列番号37
T22 peptide: WNSQKDLLEDRRA
The description is as above.

The target in another test is T23, SEQ ID NO 38 (human).
T23 construct: One of 16 peptides covering the polymorphic variants of HLA-DR β chain 61-73; also called 配列番号38
T23 peptide: WNSQKDLLERRRA
Described as above.

In a further test the target is T24, SEQ ID NO 39 (human).
T24 construct: One of 16 peptides covering the polymorphic variants of HLA-DR β chain 61-73; also called 配列番号39
T24 peptide: WNSQKDLLEDERA
The description is as above.

For the next test, the target named is T25, SEQ ID NO 40 (human).
T25 construct: also called 配列番号40
T25 peptide: WNSQKDALEQRRA
The test is described as above.

A further test has as its target T26, SEQ ID NO 41 (human).
T26 construct: also called 配列番号41
T26 peptide: WNSQKDLLEARRA
Described as above.

In a further test the target is T27, SEQ ID NO 42 (human).
T27 construct: also called 配列番号42
T27 peptide: WNSQKDLLEQARA
Described as above.

A further test deals with T28, SEQ ID NO 43 (human).
T28 construct: also called 配列番号43
T28 peptide: WNSQKDLLEQRRG
Described as above.

A further test concerns the target T29, SEQ ID NO 44 (human).
T29 construct: also called 配列番号44
T29 peptide: ANSQKDLLEQRRA
The test is described as above.

The target in the next test is T30, SEQ ID NO 45 (human).
T30 construct: also called 配列番号45
T30 peptide: WASQKDLLEQRRA
The description is as above.

The next test has as its target T31, SEQ ID NO 46 (human).
T31 construct: also called 配列番号46
T31 peptide: WNAQKDLLEQRRA
The description is as above.

The next test concerns the target T32, SEQ ID NO 47 (human).
T32 construct: also called 配列番号47
T32 peptide: WNSAKDLLEQRRA
The test is described as above.

The target of test [5] is T6, 13-mer peptide, amino acids 61-73 of …. Description: SPOT peptide membrane.

cellulose membrane = not defined here

B1: human anti-HLA-DR monoclonal antibody HD8 (hybridoma HD8, FERM BP-7773) (antibody, V domains shown)
VH: QVQLQHSGPGLVKPSQTLSLTCAISGDSVSSNSASWNWIRQSPSRGLEWLGRTYYRSKWYNDYAVSVKSRIVINPDTSKNQFSLQLNSVTPEDTAVYYCARENFYGSETCHKKYYCYGMDVWGQGTTVTVSS
VL: AIQLTQSPSSLSASVGDRVTITCRASQGISSALAWYQQKPGKAPKLLIYDASSLESGVPSRFSGSGSGTDFTLTISSLQPEDFATYYCQQFNSFPLTFGGGTKVEIK
notes: Human IgG with kappa light chain from a KM mouse hybridoma
Regarding B1, the binding result in [1] is reported as “binds”; with SEQ ID NO 48, “no binding (tested: 1μg/mL)”; with SEQ ID NO 49, “no binding (tested: 1μg/mL)”; in the test with SEQ ID NO 50, “no binding (tested: 1μg/mL)”; in the test with SEQ ID NO 51 it was “no binding (tested: 1μg/mL)”; in [2], “binds”. Further, the binding result (in test [3]; in [4]; with SEQ ID NO 24; with SEQ ID NO 25; with SEQ ID NO 26; with SEQ ID NO 27) was “binds” in each case. Besides, the binding result with SEQ ID NO 28, with SEQ ID NO 29, in the test with SEQ ID NO 30, with SEQ ID NO 31, with SEQ ID NO 32 and with SEQ ID NO 33 was “binds” throughout. The binding result with SEQ ID NO 34, in the test with SEQ ID NO 35, with SEQ ID NO 36, in the test with SEQ ID NO 37, with SEQ ID NO 38 and with SEQ ID NO 39 was “binds” each time. The binding result in the test with SEQ ID NO 40, with SEQ ID NO 41, in the test with SEQ ID NO 42, with SEQ ID NO 43, with SEQ ID NO 44 and with SEQ ID NO 45 was “binds” in each case. The binding result with SEQ ID NO 46 and in the test with SEQ ID NO 47 was “binds” in each case.

B2: human anti-HLA-DR monoclonal antibody HD4 (hybridoma HD4, FERM BP-7771) (antibody, V domains shown)
VH: EVQLLESGGGLVQPGGSLRLSCAASGFTFSSYAMTWVRQAPGKGLEWVSGISGGGDSTYYADSVKGRFTISRDNSKNTLYLQMNSLRAEDTAVYYCARDHGSGSYYPYWFDYWGQGTLVTVSS
VL: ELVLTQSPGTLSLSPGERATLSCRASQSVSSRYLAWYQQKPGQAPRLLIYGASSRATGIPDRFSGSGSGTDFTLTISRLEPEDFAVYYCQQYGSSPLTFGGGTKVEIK
notes: as for B1
As for B2, the binding result in test [5], in [3] and in test [4] was “binds” in each case.
